Measurements reported in publication PMC13395437, “A single DNA methylation site regulates cell fate during Clostridioides difficile sporulation”.
Positions count from the first letter of the chain named.

T1: Spo0A DNA-binding domain (Spo0A145-247-His6) (UniProt P52938)
T1 sequence: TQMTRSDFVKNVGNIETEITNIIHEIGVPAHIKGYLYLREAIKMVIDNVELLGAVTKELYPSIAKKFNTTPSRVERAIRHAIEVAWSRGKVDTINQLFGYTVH

T2: Spo0A DNA-binding domain (Spo0A145-247-His6) (UniProt P52938 145-247)
T2 sequence: T1 sequence with I42M

B1: Me3* PspoIIE FP probe (dsDNA)
DNA 1: AAAACCGATTATGACAAATAAAATTACTCC
DNA 2: GGAGTAATTTTATTTGTCATAATCGGTTTT
B2: WT PspoIIE FP probe (dsDNA)
DNA 1: B1 DNA 1 with T19A
DNA 2: B1 DNA 2 with A12T

Columns and labels:
[1] = target: T1, Spo0A DNA-binding domain (Spo0A145-247-His6); assay: EMSA; conditions: FP: 1 nM dsDNA, 50 mM Tris-HCl pH 8, 100 mM KCl, 2.5 mM MgCl2, 0.2 mM DTT, 10% glycerol, 2 µg salmon sperm DNA, 10 min, RT; EMSA: 20 fmol DNA, 10 mM Tris-HCl …
[2] = target: T2, Spo0A DNA-binding domain …; assay: fluorescence polarization; FP: 1 nM dsDNA, 50 mM Tris-HCl pH 8, 100 mM KCl, 2.5 mM MgCl2, 0.2 mM DTT, 10% glycerol, 2 µg salmon sperm DNA, 10 min, RT; EMSA: 20 fmol DNA, 10 mM Tris-HCl pH 7.6, 1 mM EDTA, 50 mM NaCl, 1 mM DTT, 5% glycerol, 30 min, 37 C; conditions: protein: recombinant; tags: C-terminal His6; label: 6FAM on strand 1 (5' primer); blunt

Molecule | binding [1] | binding result [2]
CCTCCTCTTTTGTTTATATTAAGAATTGTAACAAAGAGGAGTAATTTTATTTGTCATAATCGGTTTTAAAAATCAAAAAATATTAATACATTTTTTTTGACTTTTGACATATTAAGCCTTCCAAATTATCGTATTCACTTACGGTTATTTCTTCTATTTCTAATTTTTCCATTATTATATTCAATATTTTTACACCAGCAGTTATAATATCCGCACGTTTTTCTTGTAGCCCTTTTAAGTTCTTTTTATCAC (double strand) [Me3* PspoIIE EMSA fragment] | binds | 
CCTCCTCTTTTGTTTATATTAAGAATTGTAACAAAGAGGAGTAATTTTTTTTGTCATAATCGGTTTTAAAAATCAAAAAATATTAATACATTTTTTTTGACTTTTGACATATTAAGCCTTCCAAATTATCGTATTCACTTACGGTTATTTCTTCTATTTCTAATTTTTCCATTATTATATTCAATATTTTTACACCAGCAGTTATAATATCCGCACGTTTTTCTTGTAGCCCTTTTAAGTTCTTTTTATCAC (double strand) [WT PspoIIE EMSA fragment] | binds | 
B1 |  | binds
B2 |  | binds
